Earlier results on 2 substances are cited in paper PMC8019513.

Data set [1] deals with IL-8 (Homo sapiens) (UniProt P10145).
For data set [2] the target is unchanged. This is another data set of the same source.

Like-named read-outs stand apart in the source and are kept apart here.

Chain of IL-8 (Homo sapiens) (P10145 28-99): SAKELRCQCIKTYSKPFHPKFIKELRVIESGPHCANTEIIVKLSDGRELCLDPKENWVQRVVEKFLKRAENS
Chain of CXCR2 (P25025 whole entry): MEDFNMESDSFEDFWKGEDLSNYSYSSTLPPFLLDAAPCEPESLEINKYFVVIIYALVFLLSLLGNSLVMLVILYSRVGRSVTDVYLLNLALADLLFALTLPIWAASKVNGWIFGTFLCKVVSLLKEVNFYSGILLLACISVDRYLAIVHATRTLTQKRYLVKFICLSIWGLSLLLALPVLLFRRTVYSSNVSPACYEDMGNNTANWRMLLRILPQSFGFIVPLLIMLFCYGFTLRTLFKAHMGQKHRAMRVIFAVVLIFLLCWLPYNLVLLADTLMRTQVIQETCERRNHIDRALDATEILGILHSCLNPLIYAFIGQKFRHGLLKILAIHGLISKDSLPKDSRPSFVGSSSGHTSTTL
Chain of CXCR1 (P25024 whole entry): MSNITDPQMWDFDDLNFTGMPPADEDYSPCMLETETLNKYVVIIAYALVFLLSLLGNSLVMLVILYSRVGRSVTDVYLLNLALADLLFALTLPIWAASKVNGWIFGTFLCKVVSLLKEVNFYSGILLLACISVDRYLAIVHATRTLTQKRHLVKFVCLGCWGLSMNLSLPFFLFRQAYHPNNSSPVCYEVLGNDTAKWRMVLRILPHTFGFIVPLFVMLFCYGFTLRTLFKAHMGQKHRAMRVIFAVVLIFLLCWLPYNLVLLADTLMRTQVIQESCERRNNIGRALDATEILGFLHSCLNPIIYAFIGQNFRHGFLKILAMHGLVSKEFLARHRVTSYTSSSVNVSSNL

As a reminder, the Kd is the constant that tells how readily two partners part at equilibrium. For the substance CXCR1 (from UniProt P25024), the Kd in the data set with IL-8 (Homo sapiens) [1] is 4 nM.
On to CXCR2 (from UniProt P25025), for which, in the data set with IL-8 (Homo sapiens) [2], the Kd was 4 nM.
